Measurements taken from patent US20260218147, “CAS ENDONUCLEASE AND GUIDE RNA VARIANTS WITH IMPROVED EFFICIENCY” (PIONEER HI-BRED INTERNATIONAL, INC., published 2026).
Substitutions are numbered along the chain they refer to.

T1: Cas-alpha 10 variant M45S+F54D+G81E+G470D (synthetic construct, UniProt P0DW62 SEQ:1-497)
T1 chain: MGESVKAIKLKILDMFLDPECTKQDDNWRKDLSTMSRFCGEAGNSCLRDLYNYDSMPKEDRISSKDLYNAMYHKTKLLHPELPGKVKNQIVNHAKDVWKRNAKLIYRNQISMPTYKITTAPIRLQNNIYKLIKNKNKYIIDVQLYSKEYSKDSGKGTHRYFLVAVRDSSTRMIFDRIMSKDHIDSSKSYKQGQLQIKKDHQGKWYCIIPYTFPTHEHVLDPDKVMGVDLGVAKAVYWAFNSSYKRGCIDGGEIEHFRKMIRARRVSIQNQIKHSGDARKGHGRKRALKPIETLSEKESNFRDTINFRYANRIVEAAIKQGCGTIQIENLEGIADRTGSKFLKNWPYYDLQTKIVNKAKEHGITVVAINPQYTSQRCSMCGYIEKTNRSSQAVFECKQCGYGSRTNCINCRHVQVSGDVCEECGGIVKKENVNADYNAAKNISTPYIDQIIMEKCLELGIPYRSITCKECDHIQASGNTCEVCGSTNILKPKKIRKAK

T2: Cas-alpha 10 variant T34E+M45S+F54D+G81E+K85Q+G470D (synthetic construct, UniProt P0DW62 SEQ:1-497)
T2 chain: T1 chain with T34E, K85Q

T3: Cas-alpha 10 base variant (synthetic construct, UniProt P0DW62 SEQ:1-497)
T3 chain: T1 chain with S45M, D54F, E81G, D470G

T4: Cas-alpha 10 variant T34E+M45S+F54D+G81E+G470D (synthetic construct, UniProt P0DW62 SEQ:1-497)
T4 chain: T1 chain with T34E

T5: Cas-alpha 10 variant M45S+F54D+G81E+K85Q+G470D (synthetic construct, UniProt P0DW62 SEQ:1-497)
T5 chain: T1 chain with K85Q

T6: Cas-alpha 10 wild type (Cas12f) (Syntrophomonas palmitatica, UniProt P0DW62 SEQ:1-497)
T6 sequence: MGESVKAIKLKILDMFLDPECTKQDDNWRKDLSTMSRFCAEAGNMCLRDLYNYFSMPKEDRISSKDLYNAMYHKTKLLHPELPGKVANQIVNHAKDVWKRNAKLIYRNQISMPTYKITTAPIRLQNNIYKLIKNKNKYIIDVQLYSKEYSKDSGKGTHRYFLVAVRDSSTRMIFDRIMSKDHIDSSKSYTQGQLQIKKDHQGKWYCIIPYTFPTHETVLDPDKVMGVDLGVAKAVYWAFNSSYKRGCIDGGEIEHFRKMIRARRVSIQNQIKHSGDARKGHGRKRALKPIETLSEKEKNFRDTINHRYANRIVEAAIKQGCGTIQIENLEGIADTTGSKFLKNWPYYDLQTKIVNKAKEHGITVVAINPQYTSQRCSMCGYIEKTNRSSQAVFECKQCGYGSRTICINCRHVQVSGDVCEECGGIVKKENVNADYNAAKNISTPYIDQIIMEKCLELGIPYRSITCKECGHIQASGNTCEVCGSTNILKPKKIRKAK

T7: Cas-alpha 10 variant G81E (synthetic construct, UniProt P0DW62 SEQ:1-497)
T7 chain: T6 sequence

B1: sgRNA ADE2-CR1 ; ADE2-CR1 target (ssRNA ; dsDNA)
RNA: AUUUACUCUGUUUCGCGCGCCAGGGCAGUUAGGUGCCCUAAAAGAGCGAAGUGGCCGAAAGGAAAGGCUAACGCUUCUCUAACGCUACGGCGACCUUGGCGAAAUGCCAUCAAUACCACGCGGCCCGAAAGGGUUCGCGCGAAACUGAGUAAUGAAAGUCGCAUCUUGCGUAAGCGCGUGGAUUGAAACCUACACUAAAGAAUCUUCAA
DNA 1: GTTCCTACACTAAAGAATCTTCAA
DNA 2: TTGAAGATTCTTTAGTGTAGGAAC
B2: sgRNA MS26 (recognition domain SEQ 327) ; MS26 target (ssRNA ; dsDNA)
RNA: GUUUCGCGCGCCAGGGCAGUUAGGUGCCCUAAAAGAGCGAAGUGGCCGAAAGGAAAGGCUAACGCUUCUCUAACGCUACGGCGACCUUGGCGAAAUGCCAUCAAUACCACGCGGCCCGAAAGGGUUCGCGCGAAACGAAAUAAGCGCGUGGAUUGAAACAAGUUCACGGCGUUCCAGGC
DNA 1: GTTCAAGTTCACGGCGTTCCAGGC
DNA 2: GCCTGGAACGCCGTGAACTTGAAC

Key:
[1] = molecular target: T1, Cas-alpha 10 variant …; assay: cell_activity; PAM GTTC; 37 C overnight; details: tags: SV40 NLS
Protocol: (§1) K85Q was also predicted with AlphaFold to be involved in PAM recognition. Therefore, it was converted back to a K residue for M45S+F54D+G81E+K85Q+G470D (SEQ ID NO: 50) and T34E+M45S+F54D+G81E+K85Q+G470D (SEQ ID NO: 54) and re-tested using two ADE2 target sites. Testing was performed as described above and fold improvement in targeted DNA cleavage was calculated as described above, relative to the original protein.

[2] = molecular target: T2, Cas-alpha 10 variant …; assay: cell_activity; PAM GTTC; 37 C overnight; details: tags: SV40 NLS; chain copies: 2
Protocol: as §1

[3] = molecular target: T3, Cas-alpha 10 base variant; assay: cell_activity; PAM GTTC; 37 C overnight; details: tags: SV40 NLS; chain copies: 2
Protocol: as §1

[4] = molecular target: T4, Cas-alpha 10 variant …; assay: cell_activity; PAM GTTC; 37 C overnight; details: tags: SV40 NLS; chain copies: 2
Protocol: as §1

[5] = molecular target: T5, Cas-alpha 10 variant …; assay: cell_activity; PAM GTTC; 37 C overnight; details: tags: SV40 NLS; chain copies: 2
Protocol: as §1

[6] = molecular target: T6, Cas-alpha 10 wild type (Cas12f); assay: cell_activity; PAM GTTC; maize, 3x4 hr 45 C; details: tags: SV40 NLS; chain copies: 2
Protocol: (§2) The resulting T-DNA was then placed into LBA4404, a thymine auxotrophic strain of Agrobacterium tumefaciens, containing Vir9, a separate plasmid encoding the Bo542 virulence genes (US20170121722A1 and WO 2017/078836). The resulting Agrobacterium strain was then used to transform nine-to-ten-day old immature maize embryos (approximately 2 mm in size) by submersion in 700A liquid media containing the strain at an optical density (OD) of 0.4 to 2.0 at 550 nm for 5 min. and then removed from the media and placed on solid co-cultivation medium overnight at 21° C. in the dark. Following T-DNA delivery, embryos are transferred to resting media, 13266R, and grown in the dark at 28° C. for 5-7 days. Next, coleoptiles were removed, and embryos transferred to selection media for 11-16 days and kept in the dark at 28° C. They were then moved to maturation media and incubated for 14-25 days in the dark at 28° C. and then subject to light for 2-5 days. Next, they were moved to rooting media and incubated at 26-28° C. under light for 14-28 days refreshing media as needed. To examine Cas-alpha nuclease-guide RNA activity, transformed tissue was incubated at 28° C., standard for Agrobacterium transformation, or at a range of temperatures lower or higher than 28° C.
(§3) In a third study, the efficiency of targeted mutagenesis of Cas-alpha 10 endonuclease variants, SEQ ID NOs:14, 48, 60, and 157, were compared when tested with two sgRNA recognition domains, SEQ ID NOs:61 and 327, at two target sites, MS26 and D8. Experiments were carried-out in Zea mays using Agrobacterium (Agro) transformation as described in Example 2. Two temperature regimens were performed. The first subjected Agro transformed embryos (once per day) to 45° C. for 4 hrs on days 3, 4, and 5 (3×4 hr 45° C.) after infection and the second to a continuous incubation at 37° C. on days 1-3 (1-3d 37° C.) following infection. For both regimens, embryos were placed at 28° C. before and after temperature treatment. […]

[7] = molecular target: T7, Cas-alpha 10 variant G81E; assay: cell_activity; PAM GTTC; maize, 3x4 hr 45 C; details: tags: SV40 NLS; chain copies: 2
Protocol: as §2, §3

Row | Binder | activity [1] [% red yeast] | activity [2] [% red yeast] | activity [3] [% red yeast] | activity [4] [% red yeast] | activity [5] [% red yeast] | activity [6] [% targeted mutagenesis] | activity [7] [% targeted mutagenesis]
1 | B1 | 45.4 | 7.48 | 2.76 | 64.5 | 5.19 |  | 
2 | B2 |  |  |  |  |  | 4.67 | 15.5
